Patent US20230399394A1 (SUNSHINE GUOJIAN PHARMACEUTICAL SHANGHAI, published 2023)

T1: Human IL-33-his (human, UniProt O95760 112-270, biotinylated with EZ-Link NHS-Biotin where used as IL-33-his-biotin)
T1 sequence: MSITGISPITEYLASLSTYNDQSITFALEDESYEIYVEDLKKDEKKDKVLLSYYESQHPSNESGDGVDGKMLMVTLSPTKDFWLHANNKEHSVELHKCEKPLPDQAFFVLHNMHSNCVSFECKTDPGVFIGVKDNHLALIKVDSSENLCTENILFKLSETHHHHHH

T2: Mouse IL-33 protein (mouse, UniProt Q8BVZ5 109-266)
T2 construct: Bought protein
T2 sequence (looked up): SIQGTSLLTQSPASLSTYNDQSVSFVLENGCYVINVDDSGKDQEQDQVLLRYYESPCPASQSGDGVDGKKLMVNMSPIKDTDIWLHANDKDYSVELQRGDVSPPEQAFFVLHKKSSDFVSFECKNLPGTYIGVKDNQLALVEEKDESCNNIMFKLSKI

T3: Cynomolgus IL-33-his (cynomolgus, UniProt A0A2K5W3I1 112-269, biotinylated in the ELISA of Example 6)
T3 construct: Bought protein; also called cynomolgus IL-33 protein; Cynomolgus monkeys IL-33
T3 sequence: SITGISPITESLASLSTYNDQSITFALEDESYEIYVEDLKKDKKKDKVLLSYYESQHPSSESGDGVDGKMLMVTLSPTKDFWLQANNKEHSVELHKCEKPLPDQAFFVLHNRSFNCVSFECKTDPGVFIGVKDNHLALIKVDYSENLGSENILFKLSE

T4: IL-33 protein without any mutation (WT) (human, UniProt O95760 112-270)
T4 construct: Control of the alanine scan (four runs WT-1 to WT-4); also called WT-1; WT-2
T4 sequence: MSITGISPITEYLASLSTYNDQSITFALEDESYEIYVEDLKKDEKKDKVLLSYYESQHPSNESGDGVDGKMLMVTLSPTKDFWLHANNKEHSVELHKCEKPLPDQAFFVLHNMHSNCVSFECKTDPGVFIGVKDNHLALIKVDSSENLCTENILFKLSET

T5: IL-33 mutant protein V49A (human, UniProt O95760 112-270)
T5 construct: Prokaryotic expression
T5 chain: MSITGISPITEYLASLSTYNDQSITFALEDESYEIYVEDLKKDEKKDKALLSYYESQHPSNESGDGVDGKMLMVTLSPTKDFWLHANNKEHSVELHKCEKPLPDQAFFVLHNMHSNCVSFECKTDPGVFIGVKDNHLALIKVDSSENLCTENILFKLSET


Legend:
Human IL-33-his [1] = target: T1, Human IL-33-his; experiment: cell-based or functional assay
Human IL-33-his [2] = target: T1, Human IL-33-his; experiment: SPR Biacore 8K as Example 14, antibody captured, antigen as analyte
Description: (§1) A chip with covalently coupled Protein A/G (purchased from GE Healthcare, catalog number BR-1005-30) was used to capture each antibody to be tested, and the relevant operating parameters were as follows: The antibody concentration was […], the contact time was 75 s, the flow rate was […], and the regeneration contact time was 30 s. The IL-33-his antigen was diluted with HBS-EP pH7.4 buffer solution (purchased from GE Healthcare, catalog number BR-1006-69). The maximum concentration was 50 nM, and diluted to 0.39 nM by two-fold dilution. Duplicate wells and 0 concentration point well were set, and 6M guanidine hydrochloride solution was used as the regeneration buffer. The sample was injected on Biacore 8K according to the following parameters, the binding time was 180 s, the dissociation time was 900 s, the flow rate was 30 μL/min, and the regeneration contact time was 30 s. After running, Biacore 8K Evaluation Software was used to analyze the data according to the “1:1 binding kinetics model”, and the binding kinetics parameters of each antibody to IL-33 were obtained.
(§2) The experimental methods were referred to Example 14, in which the antigens cynomolgus IL-33 protein (purchased from Sino catalog number 90912-CNAE) and mouse IL-33 protein (purchased from R&D, 3626-ML-010/CF) were used, and human IL-33 protein was used as the control. Both 864F3-Hu4 and 874F7-Hu1 cross-react with cynomolgus IL-33 protein, and are consistent with the characteristics of each antibody binding to human IL-33 protein.

Mouse IL-33 protein = target: T2, Mouse IL-33 protein; experiment: as above
Description: as §1, §2

Cynomolgus IL-33-his = target: T3, Cynomolgus IL-33-his; experiment: as above
Description: as §1, §2

[3] = target: T4, IL-33 protein without any mutation (WT); experiment: ELISA as Example 9; row WT-1, the reference itself
Description: (§3) SA protein was diluted to 2 μg/mL to coat ELISA plate at 100 μL/well overnight at 4° C. The plate was washed with PBST (PBS containing 0.05% Tween20) for 3 times, and blocked with 2% BSA prepared in PBS at 200 μL/well, at room temperature for 2 h. After the plate was washed twice with PBST, IL-33-his-biotin protein was diluted to 1 μg/mL with 1% BSA prepared in PBST, and was added to ELISA plate at 100 μL/well. The plate was incubated at room temperature for 1 h, and each monoclonal antibody was diluted with 1% BSA prepared in PBST in a 3-fold gradient. The highest concentration of antibody was 10 μg/mL, and the antibody was diluted for 12 gradients. Each diluted monoclonal antibody was added to ELISA wells with 100 μL/well, and the plate was incubated at room temperature for 1 h. Each sample was added to duplicate wells in parallel. The plate was washed with PBST for 3 times, and HRP-anti human IgG Fc secondary antibody prepared with PBST was diluted at an appropriate ratio, and was added to ELISA wells at 100 μL/well. […] Each reaction solution was shaken uniformly and OD450 nm was read on a microplate reader. The data was analyzed and EC₅₀ was calculated.
(§4) Subsequently, according to the experimental method of Example 9, the affinity of the above mutant proteins to 874F7-Hu1 was determined, and IL-33 proteins (WT-1, WT-2, WT-3, and WT-4) without any mutation were set as controls.

[4] = target: T5, IL-33 mutant protein V49A; experiment: ELISA as Example 9; row V49A against WT-2
Description: as §3, §4

[5] = target: T4, IL-33 protein without any mutation (WT); experiment: ELISA as Example 9; row WT-4
Description: as §3, §4

Binder	IC50 of inhibition of IL-33-induced IL-6 expression in HUVEC cells (Human IL-33-his [1]) [nM]	IC50 of inhibition of IL-33-induced IL-8 expression in HUVEC cells (Human IL-33-his [1]) [nM]	Kd (Human IL-33-his [2]) [nM]	koff (Human IL-33-his [2]) [s⁻¹]	kon (Human IL-33-his [2]) [M⁻¹ s⁻¹]	Kd (Mouse IL-33 protein) [nM]	koff (Mouse IL-33 protein) [s⁻¹]	kon (Mouse IL-33 protein) [M⁻¹ s⁻¹]	Kd (Cynomolgus IL-33-his) [nM]	koff (Cynomolgus IL-33-his) [s⁻¹]	kon (Cynomolgus IL-33-his) [M⁻¹ s⁻¹]	Affinity decline ratio [3] [fold]	Affinity decline ratio [4] [fold]	EC50 [5] [nM]	IC50 of inhibition of IFNγ secretion by NK cells induced by IL-33 (Human IL-33-his [1]) [nM]	IC50 of inhibition of IL-5 secretion of KU812 cells induced by IL-33 (Human IL-33-his [1]) [nM]	IC50 of inhibition of IL-13 secretion of KU812 cells induced by IL-33 (Human IL-33-his [1]) [nM]	IC50 of the inhibitory effect on IL-6 expression in HUVEC cells induced by IL-33 (Human IL-33-his [1]) [nM]	IC50 of the inhibitory effect on the IFN-γ secretion of PBMC induced by IL-33 (Human IL-33-his [1]) [nM]
874F7 (antibody, V domains shown, Murine hybridoma antibody purified on Protein G; also called murine antibody 874F7) VH: QVQLKESGPGLVAPSHSLSITCNVSGFSLSKYGVHWIRQIPGRGLDWLGVLRAGGSTGYNSALMSRLSISKDSSKSQVFLKMNDLRTDDTAVYFCVRDHYYYSSYGGFVYWGQGTLVTVSA VL: DIQMTQSPASQSASLGESVTITCLASQTIGAWLAWYRQQPGKSPQLLIYAATRLADGVPSRFSGSGSGTEFSFKINNLQAEDFVSYYCQQLDSSPYTFGGGTRLEM	0.65	0.35																	
874F7-Hu1 (antibody, human IgG4 S228P, kappa, also called 874F7-Hul; humanized antibody 874F7-Hu1) heavy: not shown light: DIQMTQSPSSVSASVGDRVTITCLASQTIGAWLAWYQQKPGKSPKLLIYAATRLADGVPSRFSGSGSGTDFTLTISSLQPEDFATYYCQQLDSSPYTFGQGTKVEIKRTVAAPSVFIFPPSDEQLKSGTASVVCLLNNFYPREAKVQWKVDNALQSGNSQESVTEQDSKDSTYSLSSTLTLSKADYEKHKVYACEVTHQGLSSPVTKSFNRGEC			1.13	0.000204	180000	33.2	0.00212	64000	1.27	0.000349	273000	1	> 25	0.12	0.742	7.83	5.22	0.051	0.85
